T1: HNE specific peptide GSGSGGGAAPVAAKGGGSGSC (not fully specified)
T1 chain: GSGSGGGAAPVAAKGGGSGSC


Target: T1, HNE specific peptide …

Protein | cleavage on the multiplex sensor, Cathepsin-G alone at 100 ng/mL | cleavage on the multiplex sensor, ratio 100 uL Cathepsin-G to 0 uL HNE | cleavage on the multiplex sensor, HNE alone at 100 ng/mL | cleavage on the multiplex sensor, ratio 0 uL Cathepsin-G to 100 uL HNE | detection limit of cleavage in spiked saliva (colorimetric) | detection limit of proteolytic cleavage of the peptide-magnetic bead layer (colorimetric, visible bare gold surface)
recombinant Cathepsin-G enzyme (protein) IIGGRESRPHSRPYMAYLQIQSPAGQSRCGGFLVREDFVLTAAHCWGSNINVTLGAHNIQRRENTQQHITARRAIRHPQYNQRTIQNDIMLLQLSRRVRRNRNVNPVALPRAQEGLRPGTLCTVAGWGRVSMRRGTDTLREVQLRVQRDRQCLRIFGSYDPRRQICVGDRRERKAAFKGDSGGPLLCNNVAHGIVSYGKSSGVPPEVFTRVSSFLPWIRTTMRS | there was no cleavage seen in the bottom band | there was no reaction seen on the HNE sensor (Bottom band) |  |  |  | 
recombinant Human Neutrophil Elastase (HNE) (protein) IVGGRRARPHAWPFMVSLQLRGGHFCGATLIAPNFVMSAAHCVANVNVRAVRVVLGAHNLSRREPTRQVFAVQRIFENGYDPVNLLNDIVILQLNGSATINANVQVAQLPAQGRRLGNGVQCLAMGWGLLGRNRGIASVLQELNVTVVTSLCRRSNVCTLVRGRQAGVCFGDSGSPLVCNGLIHGIASFVRGGCASGLYPDAFAPVAQFVNWIDSIIQ |  |  | maximum reaction was seen in the bottom band containing HNE | maximum cleavage was seen on the HNE sensor (Bottom band) where a golden color change was visible | The limits of detection for both spiked proteases were comparable to those obtained with the purified proteases | detection limit to be as low as 1 pg/mL for HNE
